The values that follow come from IntAct's records for PubMed 29892012.

Sequences and labels used below:
B1: Casein kinase II subunit alpha (Homo sapiens), P68400 (parent)
chain: MSGPVPSRARVYTDVNTHRPREYWDYESHVVEWGNQDDYQLVRKLGRGKYSEVFEAINITNNEKVVVKILKPVKKKKIKREIKILENLRGGPNIITLADIVKDPVSRTPALVFEHVNNTDFKQLYQTLTDYDIRFYMYEILKALDYCHSMGIMHRDVKPHNVMIDHEHRKLRLIDWGLAEFYHPGQEYNVRVASRYFKGPELLVDYQMYDYSLDMWSLGCMLASMIFRKEPFFHGHDNYDQLVRIAKVLGTEDLYDYIDKYNIELDPRFNDILGRHSRKRWERFVHSENQHLVSPEALDFLDKLLRYDHQSRLTAREAMEHPYFYTVVKDQARMGSSSMPGGSTPVSSANMMSGISSVPTPSPLGPLAGSPVIAAANPLGMPVPAAAGAQQ
partner: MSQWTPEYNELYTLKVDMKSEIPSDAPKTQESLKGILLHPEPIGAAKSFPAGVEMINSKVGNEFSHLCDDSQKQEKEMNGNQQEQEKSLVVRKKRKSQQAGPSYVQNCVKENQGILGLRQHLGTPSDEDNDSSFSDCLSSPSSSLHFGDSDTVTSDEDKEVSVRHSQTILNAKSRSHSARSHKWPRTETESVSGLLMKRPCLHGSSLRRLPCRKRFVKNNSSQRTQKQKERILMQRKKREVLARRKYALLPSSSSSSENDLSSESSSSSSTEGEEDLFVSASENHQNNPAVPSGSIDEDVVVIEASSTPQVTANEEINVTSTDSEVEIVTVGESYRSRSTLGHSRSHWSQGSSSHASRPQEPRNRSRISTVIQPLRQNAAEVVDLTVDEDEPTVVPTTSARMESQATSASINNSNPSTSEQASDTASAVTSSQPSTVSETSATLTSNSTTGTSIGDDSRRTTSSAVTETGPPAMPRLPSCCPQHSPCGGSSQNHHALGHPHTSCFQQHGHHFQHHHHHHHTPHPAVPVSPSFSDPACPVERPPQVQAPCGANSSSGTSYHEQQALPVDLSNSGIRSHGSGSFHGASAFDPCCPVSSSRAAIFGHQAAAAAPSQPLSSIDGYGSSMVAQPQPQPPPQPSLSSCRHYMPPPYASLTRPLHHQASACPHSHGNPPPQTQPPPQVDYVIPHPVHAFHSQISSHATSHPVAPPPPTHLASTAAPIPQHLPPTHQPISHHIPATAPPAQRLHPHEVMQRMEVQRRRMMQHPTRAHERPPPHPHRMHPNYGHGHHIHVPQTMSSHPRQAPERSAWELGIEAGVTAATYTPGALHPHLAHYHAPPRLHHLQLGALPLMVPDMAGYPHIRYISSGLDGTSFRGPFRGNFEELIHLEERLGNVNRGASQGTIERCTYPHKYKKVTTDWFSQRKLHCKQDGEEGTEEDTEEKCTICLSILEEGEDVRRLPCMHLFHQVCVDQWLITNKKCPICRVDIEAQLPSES
B2: Ribosome assembly protein METTL17, mitochondrial (Homo sapiens), Q9H7H0 (parent)
chain: MAAALKCLLTLGRWCPGLGVAPQARALAALVPGVTQVDNKSGFLQKRPHRQHPGILKLPHVRLPQALANGAQLLLLGSAGPTMENQVQTLTSYLWSRHLPVEPEELQRRARHLEKKFLENPDLSQTEEKLRGAVLHALRKTTYHWQELSYTEGLSLVYMAARLDGGFAAVSRAFHEIRARNPAFQPQTLMDFGSGTGSVTWAAHSIWGQSLREYMCVDRSAAMLVLAEKLLKGGSESGEPYIPGVFFRQFLPVSPKVQFDVVVSAFSLSELPSKADRTEVVQTLWRKTGHFLVLVENGTKAGHSLLMDARDLVLKGKEKSPLDPRPGFVFAPCPHELPCPQLTNLACSFSQAYHPIPFSWNKKPKEEKFSMVILARGSPEEAHRWPRITQPVLKRPRHVHCHLCCPDGHMQHAVLTARRHGRDLYRCARVSSWGDLLPVLTPSAFPPSTAQDPSES
partner: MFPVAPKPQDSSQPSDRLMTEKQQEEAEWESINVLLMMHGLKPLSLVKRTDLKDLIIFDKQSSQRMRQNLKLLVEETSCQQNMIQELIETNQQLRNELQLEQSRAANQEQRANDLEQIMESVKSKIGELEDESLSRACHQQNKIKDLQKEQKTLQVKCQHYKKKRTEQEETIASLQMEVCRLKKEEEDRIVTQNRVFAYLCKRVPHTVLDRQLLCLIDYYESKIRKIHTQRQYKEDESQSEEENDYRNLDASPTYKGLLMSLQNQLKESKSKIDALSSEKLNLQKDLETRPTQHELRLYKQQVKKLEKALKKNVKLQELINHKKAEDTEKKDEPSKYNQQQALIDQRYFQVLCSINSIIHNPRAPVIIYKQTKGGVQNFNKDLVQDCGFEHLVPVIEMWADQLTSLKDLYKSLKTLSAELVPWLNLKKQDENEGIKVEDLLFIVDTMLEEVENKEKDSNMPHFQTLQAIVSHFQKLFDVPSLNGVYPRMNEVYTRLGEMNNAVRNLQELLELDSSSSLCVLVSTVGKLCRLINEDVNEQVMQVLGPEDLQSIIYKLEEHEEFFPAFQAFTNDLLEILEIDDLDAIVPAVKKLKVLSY
B3: Keratin, type I cuticular Ha8 (Homo sapiens), O76015 (parent)
chain: MTSSYSSSSCPLGCTMAPGARNVSVSPIDIGCQPGAEANIAPMCLLANVAHANRVRVGSTPLGRPSLCLPPTCHTACPLPGTCHIPGNIGICGAYGENTLNGHEKETMQFLNDRLANYLEKVRQLEQENAELEATLLERSKCHESTVCPDYQSYFHTIEELQQKILCSKAENARLIVQIDNAKLAADDFRIKLESERSLRQLVEADKCGTQKLLDDATLAKADLEAQQESLKEEQLSLKSNHEQEVKILRSQLGEKLRIELDIEPTIDLNRVLGEMRAQYEAMLETNRQDVEQWFQAQSEGISLQDMSCSEELQCCQSEILELRCTVNALEVERQAQHTLKDCLQNSLCEAEDRFGTELAQMQSLISNVEEQLSEIRADLERQNQEYQVLLDVKTRLENEIATYRNLLESEDCKLPCNPCSTSPSCVTAPCAPRPSCGPCTTCGPTCGASTTGSRF
partner: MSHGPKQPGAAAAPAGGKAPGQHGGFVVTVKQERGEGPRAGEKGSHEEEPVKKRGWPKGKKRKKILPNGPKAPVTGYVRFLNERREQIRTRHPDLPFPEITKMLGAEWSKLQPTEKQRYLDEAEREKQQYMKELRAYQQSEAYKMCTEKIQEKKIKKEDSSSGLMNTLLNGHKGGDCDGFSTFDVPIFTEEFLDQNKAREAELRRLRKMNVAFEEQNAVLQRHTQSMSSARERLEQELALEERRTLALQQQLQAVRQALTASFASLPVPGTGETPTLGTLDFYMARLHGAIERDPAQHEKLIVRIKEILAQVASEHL

In one test the parent is B1. The conditions noted are these: with rn111_human RNF111, Q6ZNA4.
Turning to K198R, the “effect of a mutation on the interaction” value is reported as “with no effect”.

Variants of B2 are the subject of a further test. Particulars: with cep70_human CEP70, Q8NHQ1.
As for R212H, the “effect of a mutation on the interaction” value was “with no effect”.

Variants of B3 are the subject of a further test. The conditions noted are these: with hm20b_human HMG20B.
Turning to D306A, the “effect of a mutation on the interaction” value is listed as “with no effect”.

The next test covers variants of B3. Particulars: with hm20b_human HMG20B. The source holds these as a separate data set.
In the case of N270K, the “effect of a mutation on the interaction” value is listed as “with no effect”.
